# Results reported in patent US20200199241A1 (Chugai, published 2020).
# Residue numbers refer to the chain shown, from its start.
# B1: IgG1-F206 (antibody)
# heavy: QVQLQESGPGLVKPSETLSLTCAVSGHSISHDHAWSWVRQPPGEGLEWIGFISYSGITNYNPSLQGRVTISRDNSKNTLYLQMNSLRAEDTAVYYCARSLARTTAMDYWGEGTLVTVSSASTKGPSVFPLAPSSKSTSGGTAALGCLVKDYFPEPVTVSWNSGALTSGVHTFPAVLQSSGLYSLSSVVTVPSSSLGTQTYICNVNHKPSNTKVDKKVEPKSCDKTHTCPPCPAPELLGGPSVFLFPPKPKDTLYISRTPEVTCVVVDVSHEDPEVKFNWYVDGVEVHNAKTKPREEQYNSTYRVVSVLIVLHQDWLNGKEYKCKVSNKALPAPIEKTISKAKGQPREPQVYTLPPSRDELTKNQVSLTCLVKGFYPSDIAVEWESNGQPENNYKTTPPVLDSDGSFFLYSKLTVDKSRWQQGNVFSCSVMHEALHYHYTQKSLSLSP
# light: not shown
# notes: EU numbering; copies: 2 + 2
# B2: IgG1-F208 (antibody)
# heavy: B1 heavy with I309L
# light: not shown
# notes: EU numbering; copies: 2 + 2
# B3: IgG1-F209 (antibody)
# heavy: B1 heavy with I309M
# light: not shown
# notes: EU numbering; copies: 2 + 2
# B4: IgG1-F210 (antibody)
# heavy: B1 heavy with I309N
# light: not shown
# notes: EU numbering; copies: 2 + 2
# B5: IgG1-F211 (antibody)
# heavy: B1 heavy with I309P
# light: not shown
# notes: EU numbering; copies: 2 + 2
# B6: IgG1-F212 (antibody)
# heavy: B1 heavy with I309R
# light: not shown
# notes: EU numbering; copies: 2 + 2
# B7: IgG1-F213 (antibody)
# heavy: B1 heavy with I309S
# light: not shown
# notes: EU numbering; copies: 2 + 2
# B8: IgG1-F214 (antibody)
# heavy: B1 heavy with I309V
# light: not shown
# notes: EU numbering; copies: 2 + 2
# B9: IgG1-F215 (antibody)
# heavy: B1 heavy with I309W
# light: not shown
# notes: EU numbering; copies: 2 + 2
# B10: IgG1-F216 (antibody)
# heavy: B1 heavy with I309Y
# light: not shown
# notes: EU numbering; copies: 2 + 2
# B11: IgG1-F217 (antibody)
# heavy: B1 heavy with I309T, K336L
# light: not shown
# notes: EU numbering; copies: 2 + 2
# B12: IgG1-F218 (antibody)
# heavy: B1 heavy with I309T, G387H
# light: not shown
# notes: EU numbering; copies: 2 + 2
# B13: IgG1-F219 (antibody)
# heavy: B1 heavy with T291H, I309T
# light: not shown
# notes: EU numbering; copies: 2 + 2
# B14: IgG1-F220 (antibody)
# heavy: B1 heavy with I309T, Q313H
# light: not shown
# notes: EU numbering; copies: 2 + 2
# B15: IgG1-F221 (antibody)
# heavy: B1 heavy with I309T, D314H
# light: not shown
# notes: EU numbering; copies: 2 + 2
# B16: IgG1-F222 (antibody)
# heavy: B1 heavy with I309T, N317H
# light: not shown
# notes: EU numbering; copies: 2 + 2
# B17: IgG1-F223 (antibody)
# heavy: B1 heavy with I309T, K362H
# light: not shown
# notes: EU numbering; copies: 2 + 2
# B18: IgG1-F225 (antibody)
# heavy: B1 heavy with I309T, L316R
# light: not shown
# notes: EU numbering; copies: 2 + 2
# B19: IgG1-F226 (antibody)
# heavy: B1 heavy with I309T, L316K
# light: not shown
# notes: EU numbering; copies: 2 + 2
# B20: IgG1-F227 (antibody)
# heavy: B1 heavy with N288E, I309T
# light: not shown
# notes: EU numbering; copies: 2 + 2
# B21: IgG1-F228 (antibody)
# heavy: B1 heavy with I309T, L311E
# light: not shown
# notes: EU numbering; copies: 2 + 2
# B22: IgG1-F229 (antibody)
# heavy: B1 heavy with R257E, I309T
# light: not shown
# notes: EU numbering; copies: 2 + 2
# B23: IgG1-F230 (antibody)
# heavy: B1 heavy with I309T, P389E
# light: not shown
# notes: EU numbering; copies: 2 + 2
# B24: IgG1-F236 (antibody)
# heavy: B1 heavy with K250I, Y254M, I309T, M430L
# light: not shown
# notes: EU numbering; copies: 2 + 2
# B25: IgG1-F237 (antibody)
# heavy: B1 heavy with I309T, M430A
# light: not shown
# notes: EU numbering; copies: 2 + 2
# B26: IgG1-F238 (antibody)
# heavy: B1 heavy with I309T, M430D
# light: not shown
# notes: EU numbering; copies: 2 + 2
# B27: IgG1-F240 (antibody)
# heavy: B1 heavy with I309T, M430F
# light: not shown
# notes: EU numbering; copies: 2 + 2
# B28: IgG1-F241 (antibody)
# heavy: B1 heavy with I309T, M430G
# light: not shown
# notes: EU numbering; copies: 2 + 2
# B29: IgG1-F242 (antibody)
# heavy: B1 heavy with I309T, M430H
# light: not shown
# notes: EU numbering; copies: 2 + 2
# B30: IgG1-F243 (antibody)
# heavy: B1 heavy with I309T, M430I
# light: not shown
# notes: EU numbering; copies: 2 + 2
# B31: IgG1-F244 (antibody)
# heavy: B1 heavy with I309T, M430K
# light: not shown
# notes: EU numbering; copies: 2 + 2
# B32: IgG1-F245 (antibody)
# heavy: B1 heavy with I309T, M430N
# light: not shown
# notes: EU numbering; copies: 2 + 2
# B33: IgG1-F246 (antibody)
# heavy: B1 heavy with I309T, M430P
# light: not shown
# notes: EU numbering; copies: 2 + 2
# B34: IgG1-F247 (antibody)
# heavy: B1 heavy with I309T, M430Q
# light: not shown
# notes: EU numbering; copies: 2 + 2
# B35: IgG1-F249 (antibody)
# heavy: B1 heavy with I309T, M430S
# light: not shown
# notes: EU numbering; copies: 2 + 2
# B36: IgG1-F250 (antibody)
# heavy: B1 heavy with I309T, M430T
# light: not shown
# notes: EU numbering; copies: 2 + 2
# B37: IgG1-F251 (antibody)
# heavy: B1 heavy with I309T, M430V
# light: not shown
# notes: EU numbering; copies: 2 + 2
# B38: IgG1-F252 (antibody)
# heavy: B1 heavy with I309T, M430W
# light: not shown
# notes: EU numbering; copies: 2 + 2
# B39: IgG1-F253 (antibody)
# heavy: B1 heavy with I309T, M430Y
# light: not shown
# notes: EU numbering; copies: 2 + 2
# B40: IgG1-F254 (antibody)
# heavy: B1 heavy with Y254W, I309Q, M430Y
# light: not shown
# notes: EU numbering; copies: 2 + 2
# B41: IgG1-F255 (antibody)
# heavy: B1 heavy with Y254W, I309T, Q313A, M430Y
# light: not shown
# notes: EU numbering; copies: 2 + 2
# B42: IgG1-F256 (antibody)
# heavy: B1 heavy with Y254W, I309Q, Q313A, M430Y
# light: not shown
# notes: EU numbering; copies: 2 + 2
# B43: IgG1-F257 (antibody)
# heavy: B1 heavy with I309A, M430Y
# light: not shown
# notes: EU numbering; copies: 2 + 2
# B44: IgG1-F258 (antibody)
# heavy: B1 heavy with I309Q, M430Y
# light: not shown
# notes: EU numbering; copies: 2 + 2
# B45: IgG1-F259 (antibody)
# heavy: B1 heavy with D272F, I309T
# light: not shown
# notes: EU numbering; copies: 2 + 2
# B46: IgG1-F260 (antibody)
# heavy: B1 heavy with I309A, Q313A
# light: not shown
# notes: EU numbering; copies: 2 + 2
# B47: IgG1-F261 (antibody)
# heavy: B1 heavy with I309Q, Q313A
# light: not shown
# notes: EU numbering; copies: 2 + 2
# B48: IgG1-F262 (antibody)
# heavy: B1 heavy with I309A, Q313H
# light: not shown
# notes: EU numbering; copies: 2 + 2
# B49: IgG1-F263 (antibody)
# heavy: B1 heavy with I309Q, Q313H
# light: not shown
# notes: EU numbering; copies: 2 + 2
# B50: IgG1-F264 (antibody)
# heavy: B1 heavy with I309T, E384A
# light: not shown
# notes: EU numbering; copies: 2 + 2
# B51: IgG1-F265 (antibody)
# heavy: B1 heavy with I309T, E384A, M430Y
# light: not shown
# notes: EU numbering; copies: 2 + 2
# B52: IgG1-F266 (antibody)
# heavy: B1 heavy with I309A, E384A, M430Y
# light: not shown
# notes: EU numbering; copies: 2 + 2
# B53: IgG1-F267 (antibody)
# heavy: B1 heavy with I309Q, E384A, M430Y
# light: not shown
# notes: EU numbering; copies: 2 + 2
# B54: IgG1-F268 (antibody)
# heavy: B1 heavy with P240A, I309T, M430F
# light: not shown
# notes: EU numbering; copies: 2 + 2
# B55: IgG1-F269 (antibody)
# heavy: B1 heavy with V307A, I309T, M430F
# light: not shown
# notes: EU numbering; copies: 2 + 2
# B56: IgG1-F270 (antibody)
# heavy: B1 heavy with I309T, N327G, M430F
# light: not shown
# notes: EU numbering; copies: 2 + 2
# B57: IgG1-F272 (antibody)
# heavy: B1 heavy with I309T, E382A, M430F
# light: not shown
# notes: EU numbering; copies: 2 + 2
# B58: IgG1-F274 (antibody)
# heavy: B1 heavy with I309T, E382A, E384A, M430F
# light: not shown
# notes: EU numbering; copies: 2 + 2
# B59: IgG1-F275 (antibody)
# heavy: B1 heavy with S241K, I309T, V310P, E384A
# light: not shown
# notes: EU numbering; copies: 2 + 2
# B60: IgG1-F277 (antibody)
# heavy: B1 heavy with S241K, I309T, V310P, M430Y
# light: not shown
# notes: EU numbering; copies: 2 + 2
# Biological target: T1, human FcRn (soluble human FcRn complexed with β2-microglobulin) (human, UniProt P61769 21-119, limits assumed)
# T1 construct: also called hFcRn
# T1 sequence (chain, as listed by the source limits assumed, chain 1 of 2): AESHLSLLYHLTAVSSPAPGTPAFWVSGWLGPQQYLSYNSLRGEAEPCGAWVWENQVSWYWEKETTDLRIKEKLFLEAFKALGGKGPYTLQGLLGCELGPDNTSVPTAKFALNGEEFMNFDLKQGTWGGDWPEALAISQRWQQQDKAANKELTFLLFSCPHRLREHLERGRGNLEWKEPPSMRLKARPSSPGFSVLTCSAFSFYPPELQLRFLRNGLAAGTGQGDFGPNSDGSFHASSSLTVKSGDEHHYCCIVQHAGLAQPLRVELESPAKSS
# T1 sequence (P61769 21-119 limits assumed, chain 2 of 2): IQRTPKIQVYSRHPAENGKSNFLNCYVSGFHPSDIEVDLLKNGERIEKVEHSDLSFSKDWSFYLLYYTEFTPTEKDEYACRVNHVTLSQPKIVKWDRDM
# Test: SPR, pH 7.0;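 note: antibodies captured on a Protein L sensor chip with human FcRn injected as analyte, KD calculated from fitted association and dissociation rate constants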
row,Binder,Kd
1,B1,230 nM
2,B2,390 nM
3,B3,130 nM
4,B4,290 nM
5,B5,240 nM
6,B6,680 nM
7,B7,230 nM
8,B8,170 nM
9,B9,96 nM
10,B10,230 nM
11,B11,230 nM
12,B12,260 nM
13,B13,250 nM
14,B14,250 nM
15,B15,310 nM
16,B16,340 nM
17,B17,270 nM
18,B18,1500 nM
19,B19,540 nM
20,B20,120 nM

row,Binder,Kd
1,B21,230 nM
2,B22,510 nM
3,B23,250 nM
4,B24,890 nM
5,B25,230 nM
6,B26,740 nM
7,B27,720 nM
8,B28,1500 nM
9,B29,850 nM
10,B30,180 nM
11,B31,1300 nM
12,B32,470 nM
13,B33,1100 nM
14,B34,440 nM
15,B35,640 nM
16,B36,290 nM
17,B37,190 nM
18,B38,1000 nM
19,B39,710 nM
20,B40,75 nM

row,Binder,Kd
1,B41,110 nM
2,B42,54 nM
3,B43,500 nM
4,B44,320 nM
5,B45,280 nM
6,B46,130 nM
7,B47,84 nM
8,B48,190 nM
9,B49,110 nM
10,B50,280 nM
11,B51,680 nM
12,B52,470 nM
13,B53,320 nM
14,B54,630 nM
15,B55,520 nM
16,B56,660 nM
17,B57,680 nM
18,B58,760 nM
19,B59,42 nM
20,B60,130 nM
